# Reference: patent US20260258146A1 (Regeneron, published 2026)
# Tests used:
# Assay in all cases: cell-based or functional assay
# [1] = target: T1, human CD28 on human primary CD3+ T cells (human, UniProt P10747 19-220)
# [2] = target: T1, human CD28 on human primary CD3+ T cells; remark: listed apart in the source
# [3] = target: T1, human CD28 on human primary CD3+ T cells; remark: listed apart in the source
# [4] = target: T1, human CD28 on human primary CD3+ T cells; remark: listed apart in the source
binder,measurement,setting,value
"bsAb7945 (bispecific antibody, human IgG4 S228P, kappa) heavy 1: QVQLVQSGAEVKKPGSSVKVSCKASGGPFRSSSFSWVRQAPGQGLEWMGGIIPILGKTNYAQKFQGRITIVTDESTTTVYMELSSLRSEDTAVFYCVRGSSLFDYWGQGTLVTVSSASTKGPSVFPLAPCSRSTSESTAALGCLVKDYFPEPVTVSWNSGALTSGVHTFPAVLQSSGLYSLSSVVTVPSSSLGTKTYTCNVDHKPSNTKVDKRVESKYGPPCPPCPAPPVAGPSVFLFPPKPKDTLMISRTPEVTCVVVDVSQEDPEVQFNWYVDGVEVHNAKTKPREEQFNSTYRVVSVLTVLHQDWLNGKEYKCKVSNKGLPSSIEKTISKAKGQPREPQVYTLPPSQEEMTKNQVSLTCLVKGFYPSDIAVEWESNGQPENNYKTTPPVLDSDGSFFLYSRLTVDKSRWQEGNVFSCSVMHEALHNHYTQKSLSLSLGK heavy 2: QVQLQESGPGLVKPSETLSLTCTVSGGSISSYYWSWIRQPPGKGLEWIGYIYYSGITHYNPSLKSRVTISVDTSKIQFSLKLSSVTAADTAVYYCARWGVRRDYYYYGMDVWGQGTTVTVSSASTKGPSVFPLAPCSRSTSESTAALGCLVKDYFPEPVTVSWNSGALTSGVHTFPAVLQSSGLYSLSSVVTVPSSSLGTKTYTCNVDHKPSNTKVDKRVESKYGPPCPPCPAPPVAGPSVFLFPPKPKDTLMISRTPEVTCVVVDVSQEDPEVQFNWYVDGVEVHNAKTKPREEQFNSTYRVVSVLTVLHQDWLNGKEYKCKVSNKGLPSSIEKTISKAKGQPREPQVYTLPPSQEEMTKNQVSLTCLVKGFYPSDIAVEWESNGQPENNYKTTPPVLDSDGSFFLYSRLTVDKSRWQEGNVFSCSVMHEALHNRFTQKSLSLSPGK light: not shown",EC50 T-cell proliferation; T cells + HEK293/hCD20/hCD38; bsAb7945 + IgG4^P,[1],45.6 nM
same,EC50 T-cell proliferation; T cells + HEK293/hCD20/hCD38; bsAb7945 + TAAxCD3,[1],0.000894 nM
same,EC50 IFNγ release; T cells + HEK293/hCD20/hCD38; bsAb7945 + TAAxCD3,[2],0.123 nM
same,EC50 IFNγ release; T cells + MOLP8; bsAb7945 + TAAxCD3,[2],0.00424 nM
same,EC50 IL2 release; T cells + HEK293/hCD20/hCD38; bsAb7945 + IgG4^P,[3],41.4 nM
same,EC50 IL2 release; T cells + HEK293/hCD20/hCD38; bsAb7945 + TAAxCD3,[3],0.00502 nM
same,EC50 IL2 release; T cells + MOLP8; bsAb7945 + IgG4^P,[3],0.00971 nM
same,EC50 IL2 release; T cells + NALM-6/hPD-L1; bsAb7945 + Cemiplimab,[4],0.143 nM
same,EC50 IL2 release; T cells + NALM-6/hPD-L1; bsAb7945 + IgG4^P,[4],0.169 nM
same,EC50 IL2 release; T cells + NALM-6; bsAb7945 + Cemiplimab,[4],0.0981 nM
"bsAb6031 (bispecific antibody, human IgG4 S228P, kappa) heavy 1: EVQLVESGGGLVQPGRSLRLSCAASGFTFDDYAMHWVRQAPGKGLEWVSGISWKSDNIGYADSVKGRFTISRDNAKNSLYLQMNSLRAEDTALYYCAKALGGWKFDYYYGMDVWGQGTTVTVSSASTKGPSVFPLAPCSRSTSESTAALGCLVKDYFPEPVTVSWNSGALTSGVHTFPAVLQSSGLYSLSSVVTVPSSSLGTKTYTCNVDHKPSNTKVDKRVESKYGPPCPPCPAPPVAGPSVFLFPPKPKDTLMISRTPEVTCVVVDVSQEDPEVQFNWYVDGVEVHNAKTKPREEQFNSTYRVVSVLTVLHQDWLNGKEYKCKVSNKGLPSSIEKTISKAKGQPREPQVYTLPPSQEEMTKNQVSLTCLVKGFYPSDIAVEWESNGQPENNYKTTPPVLDSDGSFFLYSRLTVDKSRWQEGNVFSCSVMHEALHNHYTQKSLSLSLGK heavy 2: EVQLVESGGGLVQPGGSLRLSCAASGFTFSRNNMHWVRQAPGKGLEYVSGISSNGGRTYYADSVKGRFTISRDNSKNTLYLQMGGLRAADMAVYFCTRDDELLSFDYWGQGTLVTVSSASTKGPSVFPLAPCSRSTSESTAALGCLVKDYFPEPVTVSWNSGALTSGVHTFPAVLQSSGLYSLSSVVTVPSSSLGTKTYTCNVDHKPSNTKVDKRVESKYGPPCPPCPAPPVAGPSVFLFPPKPKDTLMISRTPEVTCVVVDVSQEDPEVQFNWYVDGVEVHNAKTKPREEQFNSTYRVVSVLTVLHQDWLNGKEYKCKVSNKGLPSSIEKTISKAKGQPREPQVYTLPPSQEEMTKNQVSLTCLVKGFYPSDIAVEWESNGQPENNYKTTPPVLDSDGSFFLYSRLTVDKSRWQEGNVFSCSVMHEALHNRFTQKSLSLSPGK light: not shown",EC50 T-cell proliferation; T cells + HEK293/hCD20/hCD38; bsAb6031 + TAAxCD3,[1],0.143 nM
same,EC50 T-cell proliferation; T cells + MOLP8; bsAb6031 + IgG4^P,[1],0.467 nM
same,EC50 IFNγ release; T cells + HEK293/hCD20/hCD38; bsAb6031 + TAAxCD3,[2],0.294 nM
same,EC50 IFNγ release; T cells + MOLP8; bsAb6031 + TAAxCD3,[2],0.748 nM
same,EC50 IL2 release; T cells + HEK293/hCD20/hCD38; bsAb6031 + TAAxCD3,[3],0.199 nM
same,EC50 IL2 release; T cells + MOLP8; bsAb6031 + IgG4^P,[3],0.653 nM
same,EC50 IL2 release; T cells + MOLP8; bsAb6031 + TAAxCD3,[3],1.02 nM
same,EC50 IL2 release; T cells + NALM-6/hPD-L1; bsAb6031 + Cemiplimab,[4],4.39 nM
same,EC50 IL2 release; T cells + NALM-6/hPD-L1; bsAb6031 + IgG4^P,[4],2.64 nM
same,EC50 IL2 release; T cells + NALM-6; bsAb6031 + Cemiplimab,[4],2.44 nM
same,EC50 IL2 release; T cells + NALM-6; bsAb6031 + IgG4^P,[4],1.68 nM
